In US20140127724A1:
“And” between values parts separate entries of the source, which are not always exact repeats. Identical values can stand only once.

Experiments:
[1] = target: mouse fragile X mental retardation protein (FMRP) (mouse) (UniProt P35922); assay: Luminex capture immunoassay, 40 ug mouse brain extract
[2] = target: mouse fragile X mental retardation protein (FMRP) (mouse) (UniProt P35922); assay: Luminex capture immunoassay, 1.25 ug mouse brain extract
[3] = target: human fragile X mental retardation protein (FMRP) (human) (UniProt Q06787); assay: Luminex capture immunoassay, 40 ug human lymphoblastoid control extract
[4] = target: mouse fragile X mental retardation protein (FMRP) (mouse) (UniProt P35922); assay: Luminex capture immunoassay, 5 ug mouse brain extract
[5] = target: mouse fragile X mental retardation protein (FMRP) (mouse) (UniProt P35922); assay: Luminex capture immunoassay, 20 ug mouse brain extract
[6] = target: human fragile X mental retardation protein (FMRP) (human) (UniProt Q06787); assay: Luminex capture immunoassay, 20 ug human lymphoblastoid control extract
[7] = target: mouse fragile X mental retardation protein (FMRP) (mouse) (UniProt P35922); assay: Luminex capture immunoassay, 2.5 ug mouse brain extract
[8] = target: human fragile X mental retardation protein (FMRP) (human) (UniProt Q06787); assay: Luminex capture immunoassay, 5 ug human lymphoblastoid control extract
[9] = target: human fragile X mental retardation protein (FMRP) (human) (UniProt Q06787); assay: Luminex capture immunoassay, 10 ug human lymphoblastoid control extract
[10] = target: human fragile X mental retardation protein (FMRP) (human) (UniProt Q06787); assay: Luminex capture immunoassay, 80 ug human lymphoblastoid control extract
[11] = target: human fragile X mental retardation protein (FMRP) (human) (UniProt Q06787); assay: Luminex capture immunoassay, 1.25 ug human lymphoblastoid control extract
[12] = target: mouse fragile X mental retardation protein (FMRP) (mouse) (UniProt P35922); assay: Luminex capture immunoassay, 80 ug mouse brain extract
[13] = target: human fragile X mental retardation protein (FMRP) (human) (UniProt Q06787); assay: Luminex capture immunoassay, 2.5 ug human lymphoblastoid control extract
[14] = target: mouse fragile X mental retardation protein (FMRP) (mouse) (UniProt P35922); assay: Luminex capture immunoassay, 10 ug mouse brain extract

anti-PrP mAb 3F4 (antibody)
phycoerythrin fluorescence (MFI) [1]: 36 MFI and 39.5 MFI | phycoerythrin fluorescence (MFI) [2]: 7 MFI and 5 MFI | phycoerythrin fluorescence (MFI) [3]: 5 MFI and 6 MFI | phycoerythrin fluorescence (MFI) [4]: 7 MFI and 8 MFI | phycoerythrin fluorescence (MFI) [5]: 17.5 MFI and 18 MFI | phycoerythrin fluorescence (MFI) [6]: 5 MFI and 6 MFI | phycoerythrin fluorescence (MFI) [7]: 7 MFI and 6 MFI | phycoerythrin fluorescence (MFI) [8]: 5 MFI | phycoerythrin fluorescence (MFI) [9]: 5 MFI and 4 MFI | phycoerythrin fluorescence (MFI) [10]: 6 MFI | phycoerythrin fluorescence (MFI) [11]: 5 MFI | phycoerythrin fluorescence (MFI) [12]: 51 MFI and 49 MFI | phycoerythrin fluorescence (MFI) [13]: 6 MFI | phycoerythrin fluorescence (MFI) [14]: 11 MFI and 10 MFI
